Data on one substance can be found in article PMC10728891.

Assay [1] addresses human insulin (human) (UniProt P01308). As to the kind of experiment: AUC; sedimentation velocity, 300 μM insulin, […] m-cresol, […] ZnCl2, 25 mM tris buffer pH 8.0, interference optics.
Assay [2] has the same target. Put plainly: circular dichroism, dissociation kinetics after dilution; 600 μM insulin, 250 μM ZnCl2, 25 mM m-cresol, 25 mM tris pH 8 (R6 hexamer), diluted 150-fold into 25 mM tris pH 8.0; ellipticity at 222 nm over 120 s at 25 °C; monoexponential fit; hexamer to monomers.

Turning to “human insulin (from UniProt P01308 25-54; P01308 90-110) (natural protein)”, the stoichiometry N in the assay with human insulin (human) [1] is 6. Also, the t1/2 of hexamer dissociation with human insulin (human) [2] was 18.4 s.

The term stoichiometry N denotes a count of units in the complex or per binding partner.
